Measured values as given in paper PMC5966295, “Crystal structures of murine and human Histamine-Releasing Factor (HRF/TCTP) and a model for HRF dimerisation in mast cell activation” (Molecular Immunology, 2018).

Target: the molecule itself
Assay: crystal structure; hHRF-2 crystal form, 1.4 Å; crystals grown at 18 °C in 0.1 M MES pH6.0 and 20% (w/v) PEG 2000 MME; two molecules in the asymmetric unit, disulphide-linked dimer

B1: human Histamine-Releasing Factor (natural protein, UniProt P13693 1-172, looked up)
chain: MIIYRDLISHDEMFSDIYKIREIADGLCLEVEGKMVSRTEGNIDDSLIGGNASAEGPEGEGTESTVITGVDIVMNHHLQETSFTKEAYKKYIKDYMKSIKGKLEEQRPERVKPFMTGAAEQIKHILANFKNYQFFIGENMNPDGMVALLDYREDGVTPYMIFFKDGLEMEKC
notes: Histamine-Releasing Factor (HRF/TCTP), human, wild type; Met1 to Cys172, followed by the C-terminal purification tag Leu173-His180; The tag is ordered in the crystals and contributes about 25% of the hHRF-2 dimer interface; In hHRF-2 the two chains are joined by an intermolecular disulphide bond Cys172-Cys172; also called hHRF; HRF; source: prepared according to a previously described protocol …
stoichiometry N: 2
